Literature values as cited in publication PMC2884013.

Target: Glu78 (UniProt position 78, RISTVEHLNAA)
Assay: kinetics
Conditions: Zn2+-bound wild-type enzyme

UDP-3-O-(R-3-hydroxymyristoyl)-N-acetylglucosamine deacetylase (LpxC, EcLpxC) (Escherichia coli)
pKa: 6.2 ± 0.2
